B2: snapin (protein)
chain: AAAGSAAVSGAGTPVAGPTGRDLFAEGLLEFLRPAVQQLDSHVHAVRESQVELREQIDNLATELCRINEDQKVALDLDPYVKKLLNARRRVVLVNNILQNAQERLRRLNHSVAKETARRRAMLDSGVYPPGSPSK

The target in the experiment “snapin” is B2. As to the kind of experiment: SPR. (Surface plasmon resonance follows binding to a sensor surface in real time, without labels.)
Another experiment addresses T1, Dopamine D1A D1A4 (Rattus norvegicus, UniProt P18901).
T1 chain: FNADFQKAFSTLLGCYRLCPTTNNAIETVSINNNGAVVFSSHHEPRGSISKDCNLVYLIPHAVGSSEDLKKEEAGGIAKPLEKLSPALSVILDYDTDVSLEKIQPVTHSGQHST
Briefly: SPR.

B1: otoferlin C2F (protein)
chain: DMPAPGTPLDISPRKPKKYELRVIVWNTDEVVLEDDDFFTGEKSSDIFVRGWLKGQQEDKQDTDVHYHSLTGEGNFNWRYLFPFDYLAAEEKIVMSKKESMFSWDETEYKIPARLTLQIWDADHFSADDFLGAIELDLNRFPRGAKTAKQCT
As a reminder, the Kd is the equilibrium constant for the complex coming apart. Read a low Kd as a tighter complex. For B1, the Kd with snapin was determined as 23.4 nM. Turning to B2, the affinity with Dopamine D1A D1A4, expressed as Kd, was 14.6 nM. In other words, the double-digit nanomolar range.
